Experimental data taken from US20210238292A1 (VACCINEX, published 2021).
Substitutions are numbered along the chain they refer to. Read-outs that look alike come from different tables or passages of the source. Blank lines part the entries; values can stand above or below the binder they belong to.

Legend:
[1] = biological target: T1, human CCR8 (C-C chemokine receptor type 8) expressed on cells (human, UniProt P51685 1-355); test: on-cell affinity, flow cytometry on 293T cells expressing human CCR8
T1 construct: also called HuCCR8
T1 sequence (P51685 whole entry): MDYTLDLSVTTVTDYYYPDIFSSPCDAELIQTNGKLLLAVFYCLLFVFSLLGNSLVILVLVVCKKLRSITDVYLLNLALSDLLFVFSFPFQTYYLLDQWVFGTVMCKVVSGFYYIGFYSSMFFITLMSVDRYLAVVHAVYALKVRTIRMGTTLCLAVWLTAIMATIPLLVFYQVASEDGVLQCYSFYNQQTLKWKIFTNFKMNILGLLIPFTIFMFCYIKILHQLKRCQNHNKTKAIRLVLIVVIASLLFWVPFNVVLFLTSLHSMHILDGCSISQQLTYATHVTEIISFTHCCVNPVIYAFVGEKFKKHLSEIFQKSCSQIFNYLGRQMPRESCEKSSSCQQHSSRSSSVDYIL

[2] = biological target: T2, amyloid precursor-like protein 2 (APLP2) (UniProt Q06481 32-763, limits assumed); test: on-cell Kd, antibody titration on cells expressing APLP2, flow cytometry
T2 construct: whole, on cells
T2 sequence (Q06481 32-763 limits assumed): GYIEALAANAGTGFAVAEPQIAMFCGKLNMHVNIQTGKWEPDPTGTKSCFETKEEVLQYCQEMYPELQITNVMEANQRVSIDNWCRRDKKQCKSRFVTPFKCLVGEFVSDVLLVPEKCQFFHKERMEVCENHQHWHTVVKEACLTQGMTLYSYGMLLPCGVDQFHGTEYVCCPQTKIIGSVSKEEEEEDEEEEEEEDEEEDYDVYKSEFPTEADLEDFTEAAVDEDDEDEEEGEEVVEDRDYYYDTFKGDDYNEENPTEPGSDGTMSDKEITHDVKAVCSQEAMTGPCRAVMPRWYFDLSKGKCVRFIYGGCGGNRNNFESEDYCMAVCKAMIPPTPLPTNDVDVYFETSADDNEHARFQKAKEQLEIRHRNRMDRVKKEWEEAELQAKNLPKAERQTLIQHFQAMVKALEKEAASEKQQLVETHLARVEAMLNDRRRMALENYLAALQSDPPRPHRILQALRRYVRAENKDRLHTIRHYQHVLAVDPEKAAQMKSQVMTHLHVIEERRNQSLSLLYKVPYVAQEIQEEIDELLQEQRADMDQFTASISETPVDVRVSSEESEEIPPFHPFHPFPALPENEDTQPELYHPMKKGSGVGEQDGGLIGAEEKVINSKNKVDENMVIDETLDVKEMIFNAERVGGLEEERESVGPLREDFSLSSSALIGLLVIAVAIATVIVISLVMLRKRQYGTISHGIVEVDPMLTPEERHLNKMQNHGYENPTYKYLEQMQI

[3] = biological target: T1, human CCR8 (C-C chemokine receptor type …); test: flow cytometry competition on Raji-CCR8 cells; competitor: fluorescently-conjugated BIOLEGEND anti-human CCR8 antibody at a single concentration
Method: To characterize the binding cite of the CCR8 antibodies, CCR8 antibodies were incubated with Raji-CCR8 cells in a dose-dependent manner in 96-well plates at 4° C. for 30 min. Unbound CCR8 antibodies were washed away and the cells were incubated with a fluorescently-conjugated human monoclonal anti-CCR8 antibody (commercially available) at a single concentration for 30 min at 37° C. Upon completion of the experiment, the binding of the commercially available monoclonal CCR8 antibody was assessed by Flow Cytometry.

[4] = biological target: T3, mouse CCR8 expressed on 293T cells (mouse, UniProt P56484 1-353); test: flow cytometry, MoCCR8-293T cells, fold geomean over secondary alone
T3 construct: whole, on cells
T3 sequence (looked up): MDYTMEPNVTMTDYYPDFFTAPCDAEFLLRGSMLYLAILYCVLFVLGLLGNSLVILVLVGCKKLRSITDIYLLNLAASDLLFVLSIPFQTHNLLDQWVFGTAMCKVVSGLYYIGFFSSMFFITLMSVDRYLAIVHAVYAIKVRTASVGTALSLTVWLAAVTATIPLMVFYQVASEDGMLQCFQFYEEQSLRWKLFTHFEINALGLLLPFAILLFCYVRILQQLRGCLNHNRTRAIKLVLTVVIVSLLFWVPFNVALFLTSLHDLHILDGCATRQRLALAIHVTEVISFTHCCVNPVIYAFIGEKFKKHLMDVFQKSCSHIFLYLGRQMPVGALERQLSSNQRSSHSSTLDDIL

Human CCR8-ECD-Fc [5] = biological target: T4, Human CCR8-ECD-Fc (human); test: binding to HuCCR8-ECD-Fc protein, OD450-570nm
T4 construct: also called HuCCR8-ECD-Fc; huCC8-ECD-Fc
T4 chain: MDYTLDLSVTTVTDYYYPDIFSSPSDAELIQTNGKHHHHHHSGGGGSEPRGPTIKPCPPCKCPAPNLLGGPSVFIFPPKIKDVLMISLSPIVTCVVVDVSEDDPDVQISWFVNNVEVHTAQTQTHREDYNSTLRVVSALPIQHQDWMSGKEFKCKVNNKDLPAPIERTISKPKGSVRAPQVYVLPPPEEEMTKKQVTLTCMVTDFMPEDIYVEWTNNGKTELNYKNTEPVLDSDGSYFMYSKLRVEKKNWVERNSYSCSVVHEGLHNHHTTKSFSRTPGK

[6] = biological target: T5, cynomolgus monkey CCR8 expressed on cells (cynomolgus monkey, UniProt G7NYJ2 1-355); test: on-cell affinity, flow cytometry on 293T cells expressing cyno CCR8
T5 construct: whole, on cells; also called cyno CCR8; CyCCR8
T5 sequence (G7NYJ2 entry or part of it): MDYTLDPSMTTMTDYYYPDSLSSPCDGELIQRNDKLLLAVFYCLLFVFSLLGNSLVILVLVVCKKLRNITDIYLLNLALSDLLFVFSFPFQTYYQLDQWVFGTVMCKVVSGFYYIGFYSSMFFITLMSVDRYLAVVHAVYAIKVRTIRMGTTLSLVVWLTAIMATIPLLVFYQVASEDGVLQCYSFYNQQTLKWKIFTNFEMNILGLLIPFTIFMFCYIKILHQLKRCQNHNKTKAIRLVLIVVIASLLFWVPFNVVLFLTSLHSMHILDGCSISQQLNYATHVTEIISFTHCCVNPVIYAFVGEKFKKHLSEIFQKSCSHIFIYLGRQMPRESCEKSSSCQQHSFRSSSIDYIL

[7] = biological target: T1, human CCR8 (C-C chemokine receptor type …); test: flow cytometry, HuCCR8-293T cells, fold geomean over secondary alone
Human CCR8-ECD-Fc [8] = biological target: T4, Human CCR8-ECD-Fc; test: binding to HuCCR8-ECD-moFc protein (so in the source), OD45-570nm (so in the source)
[9] = biological target: T3, mouse CCR8 expressed on 293T cells; test: flow cytometry, mouseCCR8-293T cells, fold geomean over secondary alone
Cynomolgus CCR8-ECD-Fc [10] = biological target: T6, Cynomolgus CCR8-ECD-Fc (cynomolgus monkey); test: binding to CyCCR8-ECD-huFc protein (so in the source), OD45-570nm (so in the source)
T6 construct: also called CyCCR8-ECD-Fc; Cynomolgus CCR8-Fc
T6 chain: T4 chain with L7P, V9M, V12M, I20S, F21L, A27G, T32R, G34D

[11] = biological target: T3, mouse CCR8 expressed on 293T cells; test: flow cytometry, mouseCCR8-293T cells, fold geomean over secondary alone; remark: listed apart in the source
Human CCR8-ECD-Fc [12] = biological target: T4, Human CCR8-ECD-Fc; test: binding to HuCCR8-ECD-moFc protein (so in the source), OD45-570nm (so in the source)
Cynomolgus CCR8-ECD-Fc [13] = biological target: T6, Cynomolgus CCR8-ECD-Fc; test: binding to CyCCR8-ECD-huFc protein (so in the source), OD45-570nm (so in the source)

Kd [1]: 0.41 nM
IC50 (read off the curve) [3]: ~0.02 mg/L
binding result [4]: no binding (tested: 10 ug/ml)
binding result (Human CCR8-ECD-Fc [5]): binds
Kd [6]: > 50 nM
EC50 (read off the curve) [7]: ~1 mg/L
B1: anti-CCR8-1 (antibody, human IgG1, V domains shown)
VH: QVQLVQSGAEVKKPGASVKVSCKASGYTFTSYYMHWVRQAPGQGLEWMGIINPSGGSTSYAQKFQGRVTMTRDTSTSTVYMELSSLRSEDTAVYYCARAVRNRFRFDYWGQGTLVTVSS
VL: QSALTQPASVSGSPGQSITISCTGTSSDVGSYNLVSWYQQHPGKAPKLMIYEVSKRPSGVSNRFSGSKSGNTASLTISGLQAEDEADYYCSSYAGSSTFVVFGGGTKLTVL
binding result [2]: no binding (tested: 100 nM (top of the affinity axis))

Kd [1]: 1.01 nM
Kd [6]: 22.1 nM
binding result (Human CCR8-ECD-Fc [8]): binds
binding result [9]: no binding (tested: 10 ug/ml)
binding result (Cynomolgus CCR8-ECD-Fc [10]): binds
B2: anti-CCR8-1-1 (antibody, V domains shown)
VH: QVQLVQSGAEVKKPGASVKVSCKASGYTFTSYYMHWVRQAPGQGLEWMGIINPSGGSTSYAQKFQGRVTMTRDTSTSTVYMELSSLRSEDTAVYYCARGVGNGFRFDYWGQGTLVT
VL: B1 VL with A8P, S31T, K44N, S54T, S74T, Y89H, S97I, F99H
notes: Parental-1 heavy chain with a shuffled lambda light chain; Expressed from a mammalian expression vector in CHO cells as human IgG

Kd [1]: 1.06 nM
binding result [11]: no binding (tested: 10 ug/ml)
binding result (Human CCR8-ECD-Fc [12]): binds
binding result (Cynomolgus CCR8-ECD-Fc [13]): binds
B3: anti-CCR8-1-2 (antibody, V domains shown)
VH: B2 VH
VL: QSALTQPASVSGSPGQSITISCTGTSGDVGSYSLVSWYQHHPSRAPKLIIYEVNKRPSGVSDRFSGSKSGNTASLTITGLQAEDEAHYFCSSYTGNINLPVVFGGGTKLTVL
notes: Parental-1 heavy chain with a shuffled lambda light chain; Human IgG expressed in CHO cells
